Source: PMC6659695

Assays:
[1] = target: microtubules (paclitaxel-stabilized, polymerized from tubulin); experiment: optical tweezers unbinding-force assay (constant-pulling); as a1 but with 1 mM ATP; non-reducing conditions
Target sequence in this assay (chain, as listed by the source, chain 1 of 2): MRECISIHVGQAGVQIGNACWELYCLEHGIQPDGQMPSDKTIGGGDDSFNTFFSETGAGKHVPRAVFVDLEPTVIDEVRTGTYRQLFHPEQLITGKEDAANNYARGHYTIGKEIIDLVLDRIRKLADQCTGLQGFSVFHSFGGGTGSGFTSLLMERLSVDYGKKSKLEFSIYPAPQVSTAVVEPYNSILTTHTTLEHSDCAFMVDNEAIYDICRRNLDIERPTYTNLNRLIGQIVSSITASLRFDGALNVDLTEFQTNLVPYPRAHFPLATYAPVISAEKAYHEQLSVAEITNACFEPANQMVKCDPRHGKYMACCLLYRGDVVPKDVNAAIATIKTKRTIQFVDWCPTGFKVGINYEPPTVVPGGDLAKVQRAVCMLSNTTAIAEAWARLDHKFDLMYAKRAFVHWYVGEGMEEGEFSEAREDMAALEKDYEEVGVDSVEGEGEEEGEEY
Target sequence in this assay (chain, as listed by the source, chain 2 of 2): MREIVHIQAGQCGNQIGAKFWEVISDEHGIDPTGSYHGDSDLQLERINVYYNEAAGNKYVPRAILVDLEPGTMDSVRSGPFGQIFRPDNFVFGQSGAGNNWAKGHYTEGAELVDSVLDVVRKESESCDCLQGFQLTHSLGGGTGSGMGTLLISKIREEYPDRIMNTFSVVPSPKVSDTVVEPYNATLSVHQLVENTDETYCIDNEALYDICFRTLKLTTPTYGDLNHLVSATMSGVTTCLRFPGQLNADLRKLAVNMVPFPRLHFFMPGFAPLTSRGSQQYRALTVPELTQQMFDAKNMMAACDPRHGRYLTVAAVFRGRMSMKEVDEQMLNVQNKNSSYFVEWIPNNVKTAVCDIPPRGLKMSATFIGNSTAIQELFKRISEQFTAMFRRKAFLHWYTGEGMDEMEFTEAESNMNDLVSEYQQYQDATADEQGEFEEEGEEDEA

[2] = target: microtubules (paclitaxel-stabilized, polymerized from tubulin); experiment: optical tweezers unbinding-force assay (constant-pulling); motor held by its GFP on anti-GFP Fab-coated ~1-μm beads in an optical trap, MTs immobilized on the coverslip (biotin-streptavidin) and swept past the bead; single-molecule level; no nucleotide (apo, residual ATP 37.5 nM); non-reducing conditions; 30 mM HEPES, 2 mM MgAc2, 1 mM EGTA, 20 μM paclitaxel, pH 7.2; theoretical loading rate 5.6 pN/s; primary unbinding events only
Target sequence in this assay (P02550 whole entry, chain 1 of 2): as the sequence (chain, as listed by the source, chain 1 of 2) above
Target sequence in this assay (P02554 whole entry, chain 2 of 2, further chain): as the sequence (chain, as listed by the source, chain 2 of 2) above

[3] = target: microtubules (paclitaxel-stabilized, polymerized from tubulin); experiment: optical tweezers unbinding-force assay (constant-pulling); as a1 but with 1 mM ATP and TCEP (2 mM by the legend) to cleave the disulfide bonds of the stalk helices
Target sequence in this assay (P02550 whole entry, chain 1 of 2): as the sequence (chain, as listed by the source, chain 1 of 2) above
Target sequence in this assay (P02554 whole entry, chain 2 of 2, further chain): as the sequence (chain, as listed by the source, chain 2 of 2) above

[4] = target: microtubules (paclitaxel-stabilized, polymerized from tubulin); experiment: single-molecule TIRF dwell-time measurement; zero load; labeled single heads binding to and leaving surface-immobilized Cy5-labeled MTs, 100 ms per frame; apo state (2 U/ml apyrase); 30 mM HEPES, 2 mM MgAc2, 1 mM EGTA, pH 7.2; unbinding rate from an exponential fit of the CDF of dwell times
Target sequence in this assay (chain, as listed by the source, chain 1 of 2): as the sequence (chain, as listed by the source, chain 1 of 2) above
Target sequence in this assay (chain, as listed by the source, chain 2 of 2): as the sequence (chain, as listed by the source, chain 2 of 2) above

AAA1 E/Q Dyn1_(331kDa) (E/Q mutation in the AAA1 Walker B motif), P36022 1219-4092
mean unbinding force (both directions) [1]: < 1 pN

GFP-Dyn1_(331kDa), tail-truncated monomeric S. cerevisiae cytoplasmic dynein motor domain (wild type) (from UniProt P36022 1219-4092) (domain or fragment)
mean unbinding force, forward load [2]: 1.6 pN

Dyn1_(331kDa)-β CL (I3076C, L3247C; stalk helices disulfide cross-linked in the β-registry) (from UniProt P36022 1219-4092) (domain or fragment)
mean unbinding force, backward load [2]: 0.7 pN
mean unbinding force, forward load [2]: 0.7 pN

AAA1 E/Q Dyn1_(331kDa)-α CL (AAA1 Walker B E/Q; K3077C, A3250C) (from UniProt P36022 1219-4092) (domain or fragment)
mean unbinding force (both directions) [3]: < 1 pN

SNAP-tagged Dyn1_(331kDa)-β CL (β-mutant heads labeled via an inserted N-terminal SNAP-tag), P36022 1219-4092
average MT-bound time [4]: 290 ms

Dyn1_(331kDa)-α CL (K3077C, A3250C; stalk helices disulfide cross-linked in the α-registry) (from UniProt P36022 1219-4092) (domain or fragment)
mean unbinding force, forward load [2]: 2.2 pN
